Assay results: paper PMC8478157 (Nature, 2021)

Target: the molecule itself
Assay: native gel or EMSA

B1: recombinant eGFP–GBPL3 (natural protein, Arabidopsis thaliana, UniProt F4KG14 1-1082, looked up)
chain: MRSFFGRGGKDSPADSASPSPRSYPSTSPASSSAVTGPPRPIRLVYCDEKGKFRMDPEAVATLQLVKEPIGVVSVCGRARQGKSFILNQLLGRSNGFQVASTHKPCTKGLWLWSSPIKRTALDGTEYNLLLLDSEGIDAYDQTGTYSTQIFSLAVLLSSMFVYNQMGGIDEASLDRLSLVTQMTKHIRVKASGGTSSRSELGQFSPIFVWLLRDFYLDLVEDNRKISPRDYLEIALRPVQGSGGDIGAKNEIRDSIRALFPDRECFTLVRPLNNEKDLQRLDQISLEKLRPEFGAGLDAFTKFVFEKTRPKQLGGTVMTGPILVGITQSYLDALNNGAVPTITSSWQSVEETECRRAYDSGVEAYMAAFDQSKAPEEGALREEHEEAVRKALAIFNSNAVGNGSARKKFEDLLHKDLKKKFEDYKKNAFMEADLRCTSTIQRMEKQLRAACHASNANMDNVVKVLEARLAEYEASCHGPGKWQKLSVFLQQSLEGPIYDLTKRLIDSIAIEKNSLAMKFRSVEDAMKHLKQQLDDSERYKLEYQKRYDESNNDKKKLEDIYRERITKLQGENSSLNERCSTLVKTVESKKEEIKEWIRNYDQIVLKQKAVQEQLSSEMEVLRTRSTTSEARVAAAREQAKSAAEETKEWKRKYDYAVGEARSALQKAASVQERSGKETQLREDALREEFSITLANKDEEITEKATKLEKAEQSLTVLRSDLKVAESKLESFEVELASLRLTLSEMTDKLDSANKKALAYEKEANKLEQEKIRMEQKYRSEFQRFDEVKERCKAAEIEAKRATELADKARTDAVTSQKEKSESQRLAMERLAQIERAERQVENLERQKTDLEDELDRLRVSEMEAVSKVTILEARVEEREKEIGSLIKETNAQRAHNVKSLEKLLDEERKAHIAANRRAEALSLELQAAQAHVDNLQQELAQARLKETALDNKIRAASSSHGKRSRFEDVVDMDIGEGSDRILRTNKRARSTRGDDHGPTDEGDEDFQSHQDNGEEEEEEDYRKLTVQNLKHELTKYDCGHLLLNRGHQNKKEILALYEAHVLPKKALAREEERKKQREVTSS
Question: Does B1 bind?
Answer: binds
